Results reported in patent US20220098265A1 (MEDIMMUNE LIMITED, priority 2012, published 2022).
Read-outs that look alike come from different tables or passages of the source. Numbered stars: 1 amine (or outer) side, 2 acyl side, 3 side chain; on linkers, the order of the positions; unused ones are H or OH. Side chains are listed from the residue outwards. Ends that are not written are not given here. * marks the point of attachment. γGlu = O=C(O)[C@H](CCC(=O)[*:2])N[*:1]; Palmitoyl = CCCCCCCCCCCCCCCC(=O)*

T1: human glucose-dependent insulinotropic peptide (gastric inhibitory polypeptide) receptor (human, UniProt P48546 22-466)
T1 sequence (looked up): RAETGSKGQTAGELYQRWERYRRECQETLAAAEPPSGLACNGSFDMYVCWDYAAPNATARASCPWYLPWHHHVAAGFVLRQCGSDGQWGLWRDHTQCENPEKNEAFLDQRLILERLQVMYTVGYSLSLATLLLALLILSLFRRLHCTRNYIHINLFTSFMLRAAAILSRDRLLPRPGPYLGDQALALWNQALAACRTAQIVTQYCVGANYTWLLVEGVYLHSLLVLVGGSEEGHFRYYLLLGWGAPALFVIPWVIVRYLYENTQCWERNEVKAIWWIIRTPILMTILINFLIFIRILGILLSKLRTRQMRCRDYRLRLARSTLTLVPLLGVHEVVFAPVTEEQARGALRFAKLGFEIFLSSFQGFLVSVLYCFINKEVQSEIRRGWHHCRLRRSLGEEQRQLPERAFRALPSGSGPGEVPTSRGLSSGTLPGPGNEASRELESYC

T2: rat GLP-1 receptor (rat, UniProt P32301 22-463)
T2 sequence (looked up): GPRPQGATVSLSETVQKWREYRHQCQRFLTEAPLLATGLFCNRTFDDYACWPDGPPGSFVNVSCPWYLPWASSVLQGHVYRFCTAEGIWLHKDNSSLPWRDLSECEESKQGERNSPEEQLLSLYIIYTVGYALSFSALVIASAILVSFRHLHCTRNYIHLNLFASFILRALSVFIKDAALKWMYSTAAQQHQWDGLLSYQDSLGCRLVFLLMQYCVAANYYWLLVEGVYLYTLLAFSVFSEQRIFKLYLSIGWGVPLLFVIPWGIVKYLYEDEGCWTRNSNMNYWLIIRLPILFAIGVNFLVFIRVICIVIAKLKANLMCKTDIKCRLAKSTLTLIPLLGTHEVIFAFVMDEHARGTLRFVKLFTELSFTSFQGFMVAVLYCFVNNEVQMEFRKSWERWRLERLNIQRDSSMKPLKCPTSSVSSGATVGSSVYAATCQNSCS

T3: mouse GLP-1 receptor (mouse, UniProt O35659 22-463)
T3 sequence (looked up): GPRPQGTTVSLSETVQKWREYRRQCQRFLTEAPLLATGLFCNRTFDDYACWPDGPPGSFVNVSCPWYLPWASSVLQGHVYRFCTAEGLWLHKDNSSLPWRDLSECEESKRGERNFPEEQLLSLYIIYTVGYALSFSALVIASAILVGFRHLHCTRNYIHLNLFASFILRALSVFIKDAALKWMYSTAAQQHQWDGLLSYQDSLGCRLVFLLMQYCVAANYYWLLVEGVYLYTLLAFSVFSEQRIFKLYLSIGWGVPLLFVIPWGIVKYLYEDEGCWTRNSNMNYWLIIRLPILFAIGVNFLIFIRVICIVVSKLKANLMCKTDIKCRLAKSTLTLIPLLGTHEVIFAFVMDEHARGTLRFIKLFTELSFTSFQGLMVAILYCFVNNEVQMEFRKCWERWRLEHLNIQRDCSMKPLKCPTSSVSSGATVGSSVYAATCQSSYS

B1: G730 (peptide)
peptide: HSQGTFTSDYSKKLDSERARDFVAWLVAGG
modifications: X13 = K(gE-palm) (Lys with palmitoyl on the epsilon nitrogen through a gamma glutamic acid linker); C-terminal amide

Key:
[1] = frozen blank plasma from rat; conditions: 37° C, up to 48 hours
[2] = frozen blank plasma from mouse; conditions: 37° C, up to 48 hours
human glucagon receptor [3] = target: T4, human glucagon receptor (human, UniProt P47871 26-477); assay: cell-based or functional assay
T4 sequence (P47871 26-477): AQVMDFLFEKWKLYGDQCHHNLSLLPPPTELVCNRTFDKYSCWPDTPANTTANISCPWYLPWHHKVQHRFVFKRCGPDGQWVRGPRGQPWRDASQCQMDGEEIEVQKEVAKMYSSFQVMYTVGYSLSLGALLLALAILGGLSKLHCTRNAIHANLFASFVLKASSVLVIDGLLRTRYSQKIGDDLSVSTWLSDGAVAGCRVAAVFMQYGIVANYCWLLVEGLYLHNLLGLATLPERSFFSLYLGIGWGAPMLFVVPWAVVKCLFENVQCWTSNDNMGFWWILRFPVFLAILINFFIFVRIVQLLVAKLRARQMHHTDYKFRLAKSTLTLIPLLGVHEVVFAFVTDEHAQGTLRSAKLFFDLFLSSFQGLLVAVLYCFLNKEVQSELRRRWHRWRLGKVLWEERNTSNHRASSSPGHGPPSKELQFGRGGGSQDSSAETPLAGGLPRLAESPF

[4] = target: T1, human glucose-dependent insulinotropic …; assay: cell-based or functional assay
human GLP-1 receptor [5] = target: T5, human GLP-1 receptor (human, UniProt P43220 24-463); assay: cell-based or functional assay
human serum albumin = human serum albumin (Homo sapiens, UniProt P02768); assay: calculated from the variation in cAMP generation with the HSA concentration (assay 2)
Chain of human serum albumin (P02768 25-609 limits assumed): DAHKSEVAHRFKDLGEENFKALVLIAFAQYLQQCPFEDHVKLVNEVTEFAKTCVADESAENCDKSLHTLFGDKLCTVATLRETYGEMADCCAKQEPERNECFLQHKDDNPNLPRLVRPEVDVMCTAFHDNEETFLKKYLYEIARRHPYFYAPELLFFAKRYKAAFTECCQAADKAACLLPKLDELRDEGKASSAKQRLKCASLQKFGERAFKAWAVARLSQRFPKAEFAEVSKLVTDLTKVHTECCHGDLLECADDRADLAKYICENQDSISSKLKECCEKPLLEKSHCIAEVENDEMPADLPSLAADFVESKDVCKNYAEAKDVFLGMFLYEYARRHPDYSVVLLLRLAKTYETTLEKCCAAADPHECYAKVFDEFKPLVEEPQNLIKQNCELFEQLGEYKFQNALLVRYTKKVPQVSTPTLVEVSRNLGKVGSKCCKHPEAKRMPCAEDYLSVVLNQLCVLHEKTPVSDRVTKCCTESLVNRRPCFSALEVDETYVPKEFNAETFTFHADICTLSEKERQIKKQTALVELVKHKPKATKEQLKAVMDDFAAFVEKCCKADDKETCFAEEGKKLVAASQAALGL

human GLP-1 receptor [6] = target: T5, human GLP-1 receptor; assay: cell-based or functional assay; remark: listed apart in the source
human glucagon receptor [7] = target: T4, human glucagon receptor; assay: cell-based or functional assay; remark: listed apart in the source
human GLP-1 receptor [8] = target: T5, human GLP-1 receptor; assay: cell-based or functional assay; remark: listed apart in the source
rat glucagon receptor = rat glucagon receptor (rat, UniProt P30082 27-485); assay: cell-based or functional assay
Chain of rat glucagon receptor (P30082 27-485): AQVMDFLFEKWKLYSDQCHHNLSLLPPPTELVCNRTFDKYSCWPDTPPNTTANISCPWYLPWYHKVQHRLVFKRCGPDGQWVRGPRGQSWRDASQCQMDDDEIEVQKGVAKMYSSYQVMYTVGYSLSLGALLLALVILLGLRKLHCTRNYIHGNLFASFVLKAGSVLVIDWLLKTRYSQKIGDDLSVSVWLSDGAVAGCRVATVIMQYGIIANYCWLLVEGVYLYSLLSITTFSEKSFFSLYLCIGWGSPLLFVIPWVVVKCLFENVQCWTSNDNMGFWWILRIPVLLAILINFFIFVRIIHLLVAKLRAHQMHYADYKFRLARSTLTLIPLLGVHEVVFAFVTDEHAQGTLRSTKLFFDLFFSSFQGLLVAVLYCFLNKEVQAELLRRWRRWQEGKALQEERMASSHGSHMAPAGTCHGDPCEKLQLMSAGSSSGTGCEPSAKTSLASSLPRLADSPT

rat GLP-1 receptor = target: T2, rat GLP-1 receptor; assay: cell-based or functional assay
mouse GLP-1 receptor = target: T3, mouse GLP-1 receptor; assay: cell-based or functional assay
mouse glucagon receptor = mouse glucagon receptor (mouse, UniProt Q61606 27-485); assay: cell-based or functional assay
Chain of mouse glucagon receptor (Q61606 27-485): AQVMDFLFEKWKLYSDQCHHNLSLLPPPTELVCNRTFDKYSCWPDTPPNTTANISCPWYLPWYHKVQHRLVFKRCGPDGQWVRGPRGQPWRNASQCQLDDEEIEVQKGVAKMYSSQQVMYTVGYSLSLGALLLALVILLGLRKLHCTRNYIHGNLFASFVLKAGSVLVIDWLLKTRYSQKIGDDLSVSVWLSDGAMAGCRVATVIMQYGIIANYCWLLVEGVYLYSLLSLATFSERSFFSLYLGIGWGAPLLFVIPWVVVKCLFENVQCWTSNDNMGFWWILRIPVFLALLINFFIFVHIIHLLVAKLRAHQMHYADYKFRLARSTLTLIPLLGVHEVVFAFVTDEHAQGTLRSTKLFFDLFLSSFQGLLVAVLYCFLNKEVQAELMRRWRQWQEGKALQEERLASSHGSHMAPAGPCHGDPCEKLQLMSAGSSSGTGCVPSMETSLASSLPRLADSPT

human glucagon receptor [9] = target: T4, human glucagon receptor; assay: cell-based or functional assay; remark: listed apart in the source
[10] = target: T1, human glucose-dependent insulinotropic …; assay: cell-based or functional assay; remark: listed apart in the source
human GLP-1 receptor [11] = target: T5, human GLP-1 receptor; assay: cell-based or functional assay; remark: listed apart in the source

fragment found [1] | fragment found [2] | cAMP EC50 (assay 1) (human glucagon receptor [3]) [nM] | cAMP EC50 (assay 1) [4] [nM] | cAMP EC50 (assay 1) (human GLP-1 receptor [5]) [nM] | free peptide at 4.4% HSA (human serum albumin) [%] | EC50 at the GLP1R at 0% HSA (calculated from cAMP generation against HSA concentration) (human GLP-1 receptor [6]) [nM] | cAMP EC50 (assay 2, 4.4% human serum albumin) (human glucagon receptor [7]) [nM] | cAMP EC50 (assay 2, 4.4% human serum albumin) (human GLP-1 receptor [8]) [nM] | cAMP EC50 (assay 2, 3.2% rat serum albumin) (rat glucagon receptor) [nM] | cAMP EC50 (assay 2, 3.2% rat serum albumin) (rat GLP-1 receptor) [nM] | cAMP EC50 (assay 2, 3.2% mouse serum albumin) (mouse GLP-1 receptor) [nM] | cAMP EC50 (assay 2, 3.2% mouse serum albumin) (mouse glucagon receptor) [nM] | cAMP EC50 (assay 1) (human glucagon receptor [9]) [nM] | cAMP EC50 (assay 1) [10] [nM] | cAMP EC50 (assay 1) (human GLP-1 receptor [11]) [nM] | Molecule
DPP IV-cleavage product | DPP IV-cleavage product |  |  |  |  |  |  |  |  |  |  |  |  |  |  | HSQGTFTSDYSKXLDSERARDFVAWLVAGG-amide X13 = K(gE-palm)
 |  | 0.015 | 56.6 | 0.0395 | 0.85 | 0.007 | 0.402 | 0.455 | 45.1 | 0.081 | 1.1 | 5.46 | 0.00623 | 45 | 0.018 | B1
